Columns and labels:
SVEN_3027 = molecular target: T1, SVEN_3027 (Streptomyces venezuelae, UniProt F2R7M8); assay: stopped coupled assay of pyrophosphate (inorganic pyrophosphatase, malachite green); assay type: biochemical; conditions: glucose 1-phosphate as co-substrate
T1 construct: synthetic gene, E. coli BL21(DE3)pLysS

[1] = molecular target: Streptomyces venezuelae OtsA (trehalose-6-phosphate synthase) (Streptomyces venezuelae); assay: SEC; Superdex 200 10/300 GL calibrated with size standards; 20 mM HEPES pH 7.0, 10 mM MgCl2, 100 mM NaCl; size of the self-associated form
[2] = substrate: Nc1ncnc2c1ncn2[C@@H]1O[C@H](COP(=O)(O)OP(=O)(O)O[C@H]2O[C@H](CO)[C@@H](O)[C@H](O)[C@H]2O)[C@@H](O)[C@H]1O; assay: continuous coupled assay of NDP release (pyruvate kinase/lactate dehydrogenase); assay type: biochemical, Streptomyces venezuelae; conditions: glucose 6-phosphate 5 mM fixed
Excerpt: (§1) continuous coupled assay of NDP release (pyruvate kinase/lactate dehydrogenase) on S. venezuelae OtsA

[3] = substrate: Nc1nc2c(ncn2[C@@H]2O[C@H](COP(=O)(O)OP(=O)(O)O[C@H]3O[C@H](CO)[C@@H](O)[C@H](O)[C@H]3O)[C@@H](O)[C@H]2O)c(=O)[nH]1; assay: as above; assay type: biochemical, Streptomyces venezuelae; conditions: glucose 6-phosphate 5 mM fixed
Excerpt: as §1

[4] = molecular target: the molecule itself; assay: SEC; Superdex 200 16/600; 50 mM MOPS pH 8.0, 0.025 mM EDTA, 5% (w/v) sucrose; size of the self-associated form
[5] = substrate: O=P(O)(O)O[C@H]1O[C@H](CO)[C@@H](O)[C@H](O)[C@@H]1O; assay: stopped coupled assay of pyrophosphate (inorganic pyrophosphatase, malachite green); assay type: biochemical, Streptomyces venezuelae; conditions: ITP 1 mM fixed
Excerpt: (§2) stopped coupled assay of pyrophosphate (inorganic pyrophosphatase, malachite green) on SVEN_3972

[6] = substrate: Nc1nc2c(ncn2[C@@H]2O[C@H](COP(=O)(O)OP(=O)(O)OP(=O)(O)O)[C@@H](O)[C@H]2O)c(=O)[nH]1; assay: as above; assay type: biochemical, Streptomyces venezuelae; conditions: mannose 1-phosphate 2 mM fixed
Excerpt: as §2

[7] = substrate: O=P(O)(O)OP(=O)(O)OP(=O)(O)OC[C@H]1O[C@@H](n2cnc3c(O)ncnc32)[C@H](O)[C@@H]1O; assay: as above; assay type: biochemical, Streptomyces venezuelae; conditions: mannose 1-phosphate 2 mM fixed
Excerpt: as §2

[8] = substrate: O=P(O)(O)O[C@H]1O[C@H](CO)[C@@H](O)[C@H](O)[C@H]1O; assay: as above; assay type: biochemical, Streptomyces venezuelae; conditions: GTP 2 mM fixed
Excerpt: as §2

[9] = substrate: O=P(O)(O)O[C@H]1O[C@H](CO)[C@@H](O)[C@H](O)[C@@H]1O; assay: as above; assay type: biochemical, Streptomyces venezuelae; conditions: GTP 0.3 mM fixed
Excerpt: (§3) stopped coupled assay of pyrophosphate (inorganic pyrophosphatase, malachite green) on SVEN_2781

[10] = substrate: Nc1nc2c(ncn2[C@@H]2O[C@H](COP(=O)(O)OP(=O)(O)OP(=O)(O)O)[C@@H](O)[C@H]2O)c(=O)[nH]1; assay: as above; assay type: biochemical, Streptomyces venezuelae; conditions: glucose 1-phosphate 1 mM fixed
Excerpt: as §3

[11] = substrate: O=P(O)(O)O[C@H]1O[C@H](CO)[C@@H](O)[C@H](O)[C@H]1O; assay: as above; assay type: biochemical, Streptomyces venezuelae; conditions: GTP 0.3 mM fixed
Excerpt: as §3

T1 sequence (F2R7M8 entry or part of it): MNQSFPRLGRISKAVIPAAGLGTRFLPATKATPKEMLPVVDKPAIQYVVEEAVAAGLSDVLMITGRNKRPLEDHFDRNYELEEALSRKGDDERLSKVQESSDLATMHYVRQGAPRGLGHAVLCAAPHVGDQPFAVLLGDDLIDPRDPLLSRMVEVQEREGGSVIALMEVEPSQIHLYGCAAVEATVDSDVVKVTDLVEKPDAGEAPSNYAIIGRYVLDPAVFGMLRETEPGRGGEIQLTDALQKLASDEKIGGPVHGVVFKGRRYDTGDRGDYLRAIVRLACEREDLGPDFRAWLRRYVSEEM

How did the “stopped coupled assay of pyrophosphate (inorganic pyrophosphatase, malachite gre)” value (SVEN_3027) turn out when `O=c1ccn([C@@H]2O[C@H](COP(=O)(O)OP(=O)(O)OP(=O)(O)O)[C@@H](O)[C@H]2O)c(=O)[nH]1` [UTP] was run?
Its value is “donor substrate preference was UTP > dTTP ≫ CTP > GTP > ATP > ITP”.

`Cc1cn([C@H]2C[C@H](O)[C@@H](COP(=O)(O)OP(=O)(O)OP(=O)(O)O)O2)c(=O)[nH]c1=O` [dTTP] was tested. Which “stopped coupled assay of pyrophosphate (inorganic pyrophosphatase, malachite gre)” value (SVEN_3027) did it give?
The value was “donor substrate preference was UTP > dTTP ≫ CTP > GTP > ATP > ITP”.

With “Streptomyces venezuelae OtsA (trehalose-6-phosphate synthase) (enzyme)” as the molecule, how does the stoichiometry N [1] read?
The stoichiometry N was 2.

B1: S. venezuelae OtsA (Streptomyces venezuelae ATCC 10712) (protein)
chain: MASVLVASNRGPVSYVRGEDGELDARRGGGGLVSGLSAVSSQDSLWVCAALGEGDREAVRRGIGEPGVRMLDIAPDVYADAYNGIANSVLWFLHHHLYDIPREPVFDAAFRHRWEAYRAYNRAFAEALAAAADEGAAVLVQDYHLALVPGQLRELRPDLRIGHFTHTPWASPEYFRMLPADIGDELLRGMLGADELGFHTSAWASAFLSCAGGEQPRTRVRVHPLGVDAEELRALAHRPQVDERLARLREEVGDRKTIVRVDRTELSKNILRGLLAYRELLTVHPEWRDRVVHLASAYPSRQDLAAYRAYTASVTELAAEINAEFGTADWQPVLVSVEDDFTRSLAAYRLADVALVNPVRDGMNLVAKEIPVVSDAGCALVLSTGAGAYEELKEDALTVHPYDVSETAEALHTALTMPPPERADRTKRLASAATALPPQRWFLNQLEGLSDA
notes: synthetic gene, E. coli SoluBL21; 51 kDa with tag; homodimer (109 kDa by SEC)
With B1 as the molecule, how does the Km [2] read?
The Km was 440 ± 50 µM.

What about the kcat [2] of the same molecule?
The kcat was 29 ± 1 s⁻¹.

And the kcat/Km [2]?
Its kcat/Km is 67000 ± 7000 M⁻¹ s⁻¹.

What about the Km [3] of the same molecule?
The Km was 120 ± 20 µM.

What about the kcat [3] of the same molecule?
Its kcat is 139 ± 8 s⁻¹.

And the kcat/Km [3]?
The kcat/Km was 1.14e+06 ± 223000 M⁻¹ s⁻¹.

B2: Streptomyces venezuelae SVEN_3972 (ITP-mannose pyrophosphorylase) (enzyme, UniProt F2RFV6 1-238, looked up)
chain: MHTSPTQAVVLAGGQGSRLRPYTDDRPKPMVEIPGTGTPIIGHQLSWLAAEGVTDAVVSCGHLAEVLQEWLEGADLPLKVTTVVETEPLGRGGGLKYAAAHLPAPDQPWYATNGDIWTRFSLREMAAFHDERDALATLALARPRIPWGAVETDTFGHITDFIEAPPSPFLINAGVYVFSAAFTELLPDLGDHERTTFPRLARERRLAGFPLPQGAYWRAIDTAKDLTEAAKELAAQRG
notes: The His6 tag can be cleaved by TEV protease; also called SVEN15_3882
For B2, which “stoichiometry N” value [4] is on record?
The value was 2.

And the Km [5]?
The Km was 860 ± 80 µM.

What about the kcat [5] of the same molecule?
Its kcat is 0.0119 ± 0.0004 s⁻¹.

And the kcat/Km [5]?
The kcat/Km was 14 ± 1 M⁻¹ s⁻¹.

And the Km [6]?
The Km was 470 ± 30 µM.

And the kcat [6]?
Its kcat is 0.0156 ± 0.0004 s⁻¹.

What about the kcat/Km [6] of the same molecule?
The kcat/Km was 33 ± 2 M⁻¹ s⁻¹.

What about the Km [7] of the same molecule?
The Km was 170 ± 20 µM.

And the kcat [7]?
The kcat was 0.049 ± 0.001 s⁻¹.

And the kcat/Km [7]?
Its kcat/Km is 300 ± 30 M⁻¹ s⁻¹.

And the Km [8]?
The Km was 7100 ± 800 µM.

And the kcat [8]?
Its kcat is 0.014 ± 0.001 s⁻¹.

What about the kcat/Km [8] of the same molecule?
The kcat/Km was 2 ± 0.3 M⁻¹ s⁻¹.

B3: SVEN_2781 (Streptomyces venezuelae ATCC 10712) (protein)
chain: MTEAILLVGGKGTRLRPLTVNTPKPMVPAAGVPFLTHQLARARAAGVEHIVLATSYLAEVFEPHFGDGSSLGLSLEYVTEEEPLGTGGAIRNVASRLHSGPDDPVLIFNGDILTGLDIQALVATHSSSGADVSLHLTRVEDPRAFGLVPTDATGRVTAFLEKPQTPEEIVTDQINAGAYVFRRSVIDTIPAGRPVSVERETFPDLLASGAHLQGMVDSTYWLDLGTPQAFVRGSADLVLGRAPSPAVPGRCGDRLVLPSARVAPDAKLTGGTVVGADAVVGDGARITGSTLLAGAVVEPGAVITDSLIGAGARIGARSVLTGAVIGDGAQVGPDNELRDGVRVWCDATLPAGAVRFSSDQ
notes: synthetic gene, E. coli BL21(DE3); active form dimer
Which results are given for B3?
Km [9]: 2700 ± 300 µM; kcat [9]: 0.167 ± 0.008 s⁻¹; kcat/Km [9]: 60 ± 10 M⁻¹ s⁻¹; Km [10]: 260 ± 20 µM; kcat [10]: 0.159 ± 0.002 s⁻¹; kcat/Km [10]: 610 ± 40 M⁻¹ s⁻¹; Km [11]: 1400 ± 100 µM; kcat [11]: 0.171 ± 0.004 s⁻¹; kcat/Km [11]: 120 ± 10 M⁻¹ s⁻¹

From paper PMC5247666, “The Production and Utilization of GDP-glucose in the Biosynthesis of Trehalose 6-Phosphate by Streptomyces venezuelae*” (The Journal of Biological Chemistry, 2016)
